Experimental data taken from patent publication US12460006B2, “Antibodies against integrin alpha 11 beta 1” (Momenta Pharmaceuticals, Inc., priority 2019, dated 2025).

T1: I domain of α11β1 (Homo sapiens, UniProt Q9UKX5)
T1 construct: An in-house generated I domain of α11β1 was used; made in house
T1 sequence (Q9UKX5 164-345 limits assumed): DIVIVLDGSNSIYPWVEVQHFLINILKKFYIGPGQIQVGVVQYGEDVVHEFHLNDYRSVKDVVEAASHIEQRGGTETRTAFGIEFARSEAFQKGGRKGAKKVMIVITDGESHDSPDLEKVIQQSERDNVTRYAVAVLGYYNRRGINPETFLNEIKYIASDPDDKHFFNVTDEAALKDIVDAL

B1: 3B1: rabbit anti-α11β1 mAb; heavy chain SEQ ID NO: 201, light chain SEQ ID NO: 202 (antibody)
heavy: METGLRWLLLVAVLKGVQCQEQLEESGGGLVKPEGSLTLTCKASGFDLSSGYDMCWVRQAPGKGLEWIACIYADYSGSTYYASWVNGRFTISSSTSLNTVDLKMTSLTAADTATYFCARGATGNGGYGYYFNLWGPGTLVTVSSGQPKAPSVFPLAPCCGDTPSSTVTLGCLVKGYLPEPVTVTWNSGTLTNGVRTFPSVRQSSGLYSLSSVVSVTSSSQPVTCNVAHPATNTKVDKTVAPSTCSKPMCPPPELPGGPSVFIFPPKPKDTLMISRTPEVTCVVVDVSQDDPEVQFTWYINNEQVRTARPPLREQQFNSTIRVVSTLPIAHQDWLRGKEFKCKVHNKALPAPIEKTISKARGQPLEPKVYTMGPPREELSSRSVSLTCMINGFYPSDISVEWEKNGKAEDNYKTTPTVLDSDGSYFLYSKLSVPTSEWQRGDVFTCSVMHEALHNHYTQKSISRSPGK
light: MDTRAPTQLLGLLLLWLPGARCADIVMTQTPASVSEPVGGTVTIKCQASQNINSGLAWYQQKPGQPPKLLIYKASTLASGVSSRFKGSGSGTEFTLTISDLECADAATYYCQTYYYSSSSSDNAFGGGTEVVVKGDPVAPTVLIFPPAADQVATGTVTIVCVANKYFPDVTVTWEVDGTTQTTGIENSKTPQNSADCTYNLSSTLTLTSTQYNSHKEYTCKVTQGTTSVVQSFNRGDC
B2: 6C7: rabbit anti-α11β1 mAb; heavy chain SEQ ID NO: 185, light chain SEQ ID NO: 186 (antibody)
heavy: METGLRWLLLVAVLKGVQCQQQLEESGGGLVKPGGTLTLTCKASGIDFSSYYYMCWVRQAPGKGLELIVCIYTSSGGTWYASWVNGRLTISRSTSLNTVDLKMTSLTAADTATYFCARGVYSGSSDYPTRLDLWGQGTLVTVSLGQPKAPSVFPLAPCCGDTPSSTVTLGCLVKGYLPEPVTVTWNSGTLTNGVRTFPSVRQSSGLYSLSSVVSVTSSSQPVTCNVAHPATNTKVDKTVAPSTCSKPMCPPPELPGGPSVFIFPPKPKDTLMISRTPEVTCVVVDVSQDDPEVQFTWYINNEQVRTARPPLREQQFNSTIRVVSTLPIAHQDWLRGKEFKCKVHNKALPAPIEKTISKARGQPLEPKVYTMGPPREELSSRSVSLTCMINGFYPSDISVEWEKNGKAEDNYKTTPTVLDSDGSYFLYSKLSVPTSEWQRGDVFTCSVMHEALHNHYTQKSISRSPGK
light: MDTSTSTALLGLLLLWLTGARCAIEMTQSPPSLSASVGETVRIRCLASEDIYSGISWYQQKPEKPPTLLISGASNLESGVPPRFSGGGSGTDYTLTIGGVQAEDVATYYCLGGYSFSSTGLTFGAGTKVEIKRDPVAPSVLLFPPSKEELTTGTATIVCVANKYFPDVTVTWEVDGTTQTTGIENSKTPQNSADCTYNLSSTLTLTSTQYNSHKEYTCKVTQGTTSVVQSFNRGDC
B3: 5D7: rabbit anti-α11β1 mAb; heavy chain SEQ ID NO: 191, light chain SEQ ID NO: 192 (antibody)
heavy: METGLRWLLLVAVLKGVQCQEQLVESGGGLVQPEGSLTLTCKASGFDFSSNAMCWVRQAPGKGLEWIACIYNGDGSTYYASWVNGRFTISKTSSTTVTLQMTSLTAADTATYFCARGLSNWNRDNLWGPGTLVTVSSGQPKAPSVFPLAPCCGDTPSSTVTLGCLVKGYLPEPVTVTWNSGTLTNGVRTFPSVRQSSGLYSLSSVVSVTSSSQPVTCNVAHPATNTKVDKTVAPSTCSKPMCPPPELPGGPSVFIFPPKPKDTLMISRTPEVTCVVVDVSQDDPEVQFTWYINNEQVRTARPPLREQQFNSTIRVVSTLPIAHQDWLRGKEFKCKVHNKALPAPIEKTISKARGQPLEPKVYTMGPPREELSSRSVSLTCMINGFYPSDISVEWEKNGKAEDNYKTTPTVLDSDGSYFLYSKLSVPTSEWQRGDVFTCSVMHEALHNHYTQKSISRSPGK
light: MDTRAPTQLLGLLLLWLPGATFAQVLTQTPSSVSAAVGGTATINCQASQSLYSPKNLAWYQQTPGQPPKLLIYSASKLASGVPSRFKGSGSGTQFTLTISGVQCDDAAIYYCQGEFSCTTAACFAFGGGTEVVVKGDPVAPTVLIFPPAADQVATGTVTIVCVANKYFPDVTVTWEVDGTTQTTGIENSKTPQNSADCTYNLSSTLTLTSTQYNSHKEYTCKVTQGTTSVVQSFNRGDC
B4: 10-L15: mouse anti-α11β1 mAb; VH SEQ ID NO: 119, VL SEQ ID NO: 120 (antibody, V domains shown)
VH: QVQLQQSGPELVRPGASVKMSCKASGYTFTSYWMHWVKQRPGQGLEWIGMIDPSNSETWLNQKFKDKATLNVDKSSNTAYMQLSSLTSEDSAVYYCARYDGYYDYWGQGTTLTVSS
VL: NIVLTQSPASLAVSLGQRATISCRASESVDSYGNSFMHWYQQKPGQPPKLLIYLASNVESGVPARFSGSGSRTDFTLTIDPVEADDAATYYCQQNNEDPWTFGGGTKLEIK
B5: 4E1: rabbit anti-α11β1 mAb; heavy chain SEQ ID NO: 195, light chain SEQ ID NO: 196 (antibody)
heavy: METGLRWLLLVAVLKGVQCQSLEESGGDLVKPGTSLTLSCTASGFSFGSYYYMCWVRQAPGKGLEWIACIDVGSSGDTYYASWVNGRFTISKTSSTTVTLQMTSLTAADTATYFCARDDTAAGGFGNLELWGPGTLVTVSSGQPKAPSVFPLAPCCGDTPSSTVTLGCLVKGYLPEPVTVTWNSGTLTNGVRTFPSVRQSSGLYSLSSVVSVTSSSQPVTCNVAHPATNTKVDKTVAPSTCSKPMCPPPELPGGPSVFIFPPKPKDTLMISRTPEVTCVVVDVSQDDPEVQFTWYINNEQVRTARPPLREQQFNSTIRVVSTLPIAHQDWLRGKEFKCKVHNKALPAPIEKTISKARGQPLEPKVYTMGPPREELSSRSVSLTCMINGFYPSDISVEWEKNGKAEDNYKTTPTVLDSDGSYFLYSKLSVPTSEWQRGDVFTCSVMHEALHNHYTQKSISRSPGK
light: MDTRAPTQLLGLLLLWLPGARCAFELTQTPSSVSEPVGGTVTIKCQASQSIYSYFSWYQQKPGQPPKRLIYQASTLASGVPSRFKGSGSGTDFTLTISDLECADAATYYCQNNYGRGSGSYFFGFGGGTEVVVKGDPVAPTVLIFPPAADQVATGTVTIVCVANKYFPDVTVTWEVDGTTQTTGIENSKTPQNSADCTYNLSSTLTLTSTQYNSHKEYTCKVTQGTTSVVQSFNRGDC
B6: 5A7: rabbit anti-α11β1 mAb; heavy chain SEQ ID NO: 193, light chain SEQ ID NO: 194 (antibody)
heavy: METGLRWLLLVAVLKGVQCQSLEESGGGLVQPEGSLTLACTASGFSFSSYYYICWVRQAPGTGLEWIGCINTGSDDTHYASWLKGRFTFSKASSTTLTLQMTSLTAADTATYFCARSSGSSDDAYDLWGPGTLVTVSSGQPKAPSVFPLAPCCGDTPSSTVTLGCLVKGYLPEPVTVTWNSGTLTNGVRTFPSVRQSSGLYSLSSVVSVTSSSQPVTCNVAHPATNTKVDKTVAPSTCSKPMCPPPELPGGPSVFIFPPKPKDTLMISRTPEVTCVVVDVSQDDPEVQFTWYINNEQVRTARPPLREQQFNSTIRVVSTLPIAHQDWLRGKEFKCKVHNKALPAPIEKTISKARGQPLEPKVYTMGPPREELSSRSVSLTCMINGFYPSDISVEWEKNGKAEDNYKTTPTVLDSDGSYFLYSKLSVPTSEWQRGDVFTCSVMHEALHNHYTQKSISRSPGK
light: MDTRAPTQLLGLLLLWLPGARCDVVMTQTPASVSEPVGGAVTIKCQASQSIGSNLAWYQHKPGQPPKLLIYFASSLASGVSSRFKGGRSGTQFTLTISDLECADAATYYCHCTYYPLSYVTFGGGTEVVVKGDPVAPTVLIFPPAADQVATGTVTIVCVANKYFPDVTVTWEVDGTTQTTGIENSKTPQNSADCTYNLSSTLTLTSTQYNSHKEYTCKVTQGTTSVVQSFNRGDC

The molecules below were run on α1β1, α2β1 and/or α10β1 (assay: Counter-screen for cross-reactivity to other collagen receptors). Settings: cross-reactivity to α1β1, α2β1, α10β1.
Format: binding, human
How it was run: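 Rat- and mouse-derived anti-α11β1 hybridoma supernatants or clones, first identified by ELISA against human and mouse α11β1, were counter-screened by ELISA against human α1β1, α2β1 and α10β1 to assess cross-reactivity to related collagen receptors.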

Row | Molecule | Off Target
1 | B1 | No
2 | B2 | No
3 | B3 | No
4 | B4 | No
5 | B5 | No
6 | B6 | No

The molecules below were run on human pulmonary fibroblasts (HPFs) (assay: FACS antibody binding to human pulmonary fibroblasts). Settings: binding Yes/No.

Row | Molecule | HPF FACS
7 | B1 | No
8 | B2 | No
9 | B3 | No
10 | B4 | No
11 | B5 | No
12 | B6 | No

What follows are molecules tested against T1, I domain of α11β1 (assay: ELISA binding to in-house generated I domain of α11β1). Settings: Yes/No.
How it was run: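 Plate-coated antigen (0.25 μg/mL, overnight 4° C) probed with antibody dilution series 1 h at room temperature, then biotinylated anti-IgG and streptavidin-HRP, 1 h each. TMB substrate 5 min, stopped, absorbance at 450 nm; in-house I domain of α11β1 used as target.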

Row | Molecule | I Domain binding
13 | B1 | No
14 | B2 | No
15 | B3 | No
16 | B4 | Yes
17 | B5 | No
18 | B6 | No
